Columns and labels:
[1] = target: T1, tetanus neurotoxin (TeNT), authentic tetanus holotoxin (Clostridium tetani, UniProt P04958 2-1315); experiment: GT1b-TeNT inhibition ELISA
[2] = target: T1, tetanus neurotoxin (TeNT), authentic …; experiment: GT1b-TeNT inhibition ELISA; remark: listed apart in the source
dog albumin (dog Alb) [3] = target: T2, dog albumin (dog Alb) (dog, UniProt P49822 25-608); experiment: ELISA: coated dog Alb, anti-his6 PO
T2 construct: also called Canine albumin

dog albumin (dog Alb) [4] = target: T2, dog albumin (dog Alb); experiment: ELISA: coated dog Alb, anti-his6 PO; remark: listed apart in the source
[5] = target: T1, tetanus neurotoxin (TeNT), authentic …; experiment: ELISA: directly coated TeNT, anti-his6 PO
[6] = target: T1, tetanus neurotoxin (TeNT), authentic …; experiment: ELISA: directly coated TeNT, anti-his6 PO; remark: listed apart in the source
[7] = target: T1, tetanus neurotoxin (TeNT), authentic …; experiment: ELISA: directly coated TeNT, goat anti-llama Ig PO
[8] = target: T1, tetanus neurotoxin (TeNT), authentic …; experiment: ELISA: directly coated TeNT, goat anti-llama Ig PO; remark: listed apart in the source
[9] = target: T1, tetanus neurotoxin (TeNT), authentic …; experiment: BLI (Octet Red96): biotinylated TeNT on SA sensor, SDA as analyte
[10] = target: T3, horse albumin (horse Alb) (horse, UniProt P35747 25-607); experiment: bridging ELISA: cAb-TT2-captured TeNT, SDA, biotinylated horse Alb, StrepPO
[11] = target: T3, horse albumin (horse Alb); experiment: as above; remark: listed apart in the source
[12] = target: T1, tetanus neurotoxin (TeNT), authentic …; experiment: bridging ELISA: coated TeNT, SDA, biotinylated TeNT, StrepPO (bivalent binding)
[13] = target: T1, tetanus neurotoxin (TeNT), authentic …; experiment: as above; remark: listed apart in the source
horse serum albumin = target: T4, horse serum albumin (horse, UniProt P35747 25-607); experiment: BLI, Octet Red96
T4 construct: mature; also called horse Alb; Equine albumin

mouse albumin = mouse albumin (mouse, UniProt P07724 25-608); experiment: ELISA on coated albumin
swine albumin [14] = target: T5, swine albumin (swine, UniProt P08835 25-607); experiment: ELISA on coated albumin
T5 construct: also called Porcine albumin

human albumin [15] = target: T6, human albumin (human, UniProt P02768 25-609); experiment: ELISA on coated albumin
sheep albumin [16] = target: T7, sheep albumin (sheep, UniProt P14639 25-607); experiment: ELISA on coated albumin
bovine albumin [17] = target: T8, bovine albumin (bovine, UniProt P02769 25-607); experiment: ELISA on coated albumin
chicken ovalbumin [18] = target: T9, chicken ovalbumin (chicken, UniProt P01012 2-386); experiment: ELISA on coated albumin
T9 construct: also called Chicken Alb
T9 sequence (looked up): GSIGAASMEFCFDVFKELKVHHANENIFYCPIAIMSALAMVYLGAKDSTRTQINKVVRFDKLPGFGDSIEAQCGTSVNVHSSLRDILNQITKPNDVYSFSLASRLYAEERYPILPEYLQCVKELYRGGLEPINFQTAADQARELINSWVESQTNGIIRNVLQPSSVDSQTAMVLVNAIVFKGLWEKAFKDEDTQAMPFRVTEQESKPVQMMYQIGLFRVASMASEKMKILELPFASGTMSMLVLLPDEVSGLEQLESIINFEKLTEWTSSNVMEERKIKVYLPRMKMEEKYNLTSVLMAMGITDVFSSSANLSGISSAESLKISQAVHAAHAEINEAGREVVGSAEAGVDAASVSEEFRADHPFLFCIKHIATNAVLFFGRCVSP

horse albumin [19] = target: T10, horse albumin (horse, UniProt P35747 25-607); experiment: ELISA on coated albumin
T10 construct: also called Equine albumin

dog albumin [20] = target: T11, dog albumin (dog, UniProt P49822 25-608); experiment: ELISA on coated albumin
T11 construct: also called Canine albumin

cat albumin [21] = target: T12, cat albumin (cat, UniProt P49064 25-608); experiment: ELISA on cat albumin captured from serum
T12 construct: also called Feline albumin

human albumin [22] = target: T6, human albumin; experiment: ELISA; A450 below 0.2 at highest SDA concentration
sheep albumin [23] = target: T7, sheep albumin; experiment: ELISA; A450 below 0.2 at highest SDA concentration
bovine albumin [24] = target: T8, bovine albumin; experiment: ELISA; A450 below 0.2 at highest SDA concentration
chicken ovalbumin [25] = target: T9, chicken ovalbumin; experiment: ELISA; A450 below 0.2 at highest SDA concentration
Swine albumin [26] = target: T13, Swine albumin (swine, UniProt P08835 25-607); experiment: BLI (Octet Red96), SDA on Ni-NTA sensor, albumin as analyte
T13 construct: also called Porcine Alb

Horse albumin [27] = target: T14, Horse albumin (horse, UniProt P35747 25-607); experiment: as above
T14 construct: also called Equine albumin; Equine Alb

Dog albumin [28] = target: T15, Dog albumin (dog, UniProt P49822 25-608); experiment: as above
T15 construct: also called Canine albumin; Canine Alb

Cat albumin [29] = target: T16, Cat albumin (cat, UniProt P49064 25-608); experiment: as above
T16 construct: also called Feline albumin; Feline Alb

B1: SVT06-GS2-SVA12M2-H6 (bispecific antibody)
chain: QVQLQESGGGSVQAGGSLRLSCTASELSYDDYTIAWFRRAAGEGRVEDGEGVASITKSYDRAYDNKINYGHSVKGRFTISRDNAKNTVYLQMTDLLPSDTAVYYCALDITPPGGVGASLTEGFLFDYWGQGTQVTVSSGGGGSGGGSEVQLVESGGGLVQAGGSLRLSCAASGRTFSYYPMAWFRQAPGQEREFVAAIIGADTTYYADSLKGRFTISRDNAKNMVYLQMNSLKPEDTAVYYCAARNTYWSDVYYREGQYTNWGQGTQVTVSSHHHHHH
minimal absorbance value (GT1b-TeNT inhibition) [1]: 0.18 A450
Effective SDA Concentration at A450 0.56 [2]: 55 ng/mL
maximal absorbance value (dog albumin (dog Alb) [3]): 1.67 A450
Effective SDA Concentration at A450 0.2 (dog albumin (dog Alb) [4]): 39 ng/mL
maximal absorbance value [5]: 1.59 A450
Effective SDA Concentration at A450 0.15 [6]: 3.5 ng/mL
maximal absorbance value [7]: 1.21 A450
Effective SDA Concentration at A450 0.15 [8]: 1.1 ng/mL
Kd [9]: 0.151 nM
koff [9]: 8.9e-05 s⁻¹
kon [9]: 591000 M⁻¹ s⁻¹
maximal absorbance value [10]: 1.47 A450
Effective SDA Concentration at A450 0.7 [11]: 1.5 ng/mL
maximal absorbance value [12]: 0.66 A450
Effective SDA Concentration at A450 0.3 [13]: 19 ng/mL

B2: SVT16-L123Q-GS2-SVG13M4-H6 (bispecific antibody)
chain: QVQLQESGGGSVQAGDSLRLSCAASGRTISNYAMGWFRQAPGKQREFVAAISRSDNTYYTDSVKGRFTISRDNAKNTLYLQMNSLKPEETAVYYCAADPNLMYESKWKYRALEAWGQGTQVTVSSGGGGSGGGSEVQLVESGGGLVQPGGSLRLSCEASGFTFDDYGMSWVRQAPGKGLEWVSSLTPNGGSTYYADSVKGRFTISRDNAKNTLYLQMNSLKPEDTALYYCAKNSYYGAMDYWGQGTQVTVSSHHHHHH
binding result (horse serum albumin): no binding (tested: 100 nM)

B3: SVA06L (VHH)
VHH: QVQLQESGGRLVQAEDSLRLSCAASGRTFVSYDMGWFRQAPGKEREFVAAINWRGYTTDYVDSVKGRFFISRDIAKSTVYLQMNNLKPEDTAVYYCAARQMSGSSRYSPPGRVGYDFWGQGTQVTVSS
SDA Effective Concentration resulting in A450 nm = 0.2 (mouse albumin): 180 ng/mL
maximal absorbance value at 450 nm (mouse albumin): 0.36 A450
SDA Effective Concentration resulting in A450 nm = 0.2 (swine albumin [14]): 344 ng/mL
maximal absorbance value at 450 nm (swine albumin [14]): 0.288 A450
maximal absorbance value at 450 nm (human albumin [15]): 0.05 A450
maximal absorbance value at 450 nm (sheep albumin [16]): 0.052 A450
maximal absorbance value at 450 nm (bovine albumin [17]): 0.052 A450
maximal absorbance value at 450 nm (chicken ovalbumin [18]): 0.054 A450
SDA Effective Concentration resulting in A450 nm = 0.2 (horse albumin [19]): 235 ng/mL
maximal absorbance value at 450 nm (horse albumin [19]): 0.483 A450
SDA Effective Concentration resulting in A450 nm = 0.2 (dog albumin [20]): 51 ng/mL
maximal absorbance value at 450 nm (dog albumin [20]): 0.921 A450
maximal absorbance value at 450 nm (cat albumin [21]): 0.158 A450
binding result (human albumin [22]): no binding (tested: 1000 ng/ml)
binding result (sheep albumin [23]): no binding (tested: 1000 ng/ml)
binding result (bovine albumin [24]): no binding (tested: 1000 ng/ml)
binding result (chicken ovalbumin [25]): no binding (tested: 1000 ng/ml)

B4: SVA12L (VHH)
VHH: QVQLQESGGGLVQAGGSLRLSCAASGRTFSYYPMAWFRQAPGQEREFVAAIIGADTTYYADSLKGRFTISRDNAKNMVYLQMNSLKPEDTAVYYCAARNTYWSDVYYREGQYTNWGQGTQVTVSS
Kd (Swine albumin [26]): 159 nM
koff (Swine albumin [26]): 0.0238 s⁻¹
kon (Swine albumin [26]): 150000 M⁻¹ s⁻¹
Kd (Horse albumin [27]): 10.7 nM
koff (Horse albumin [27]): 0.00109 s⁻¹
kon (Horse albumin [27]): 101000 M⁻¹ s⁻¹
Kd (Dog albumin [28]): 271 nM
koff (Dog albumin [28]): 0.0125 s⁻¹
kon (Dog albumin [28]): 45900 M⁻¹ s⁻¹
Kd (Cat albumin [29]): 19 nM
koff (Cat albumin [29]): 0.000737 s⁻¹
kon (Cat albumin [29]): 38800 M⁻¹ s⁻¹

B5: SVT15-3FW4M-GS2-SVA12M2-H6 (bispecific antibody)
chain: QVQLQESGGGLVQTGGSLRLSCRASGRAFANYHFGWFRQAPGKDREFVASISWKGGSTYYANFALGRFTSSVDRAESSVYLQMSGLTPEDTATYYCAAHDGGDWNYHTGMDYWGQGTQVTVSSGGGGSGGGSEVQLVESGGGLVQAGGSLRLSCAASGRTFSYYPMAWFRQAPGQEREFVAAIIGADTTYYADSLKGRFTISRDNAKNMVYLQMNSLKPEDTAVYYCAARNTYWSDVYYREGQYTNWGQGTQVTVSSHHHHHH
minimal absorbance value (GT1b-TeNT inhibition) [1]: 0.15 A450
Effective SDA Concentration at A450 0.56 [2]: 78 ng/mL
maximal absorbance value (dog albumin (dog Alb) [3]): 1.55 A450
Effective SDA Concentration at A450 0.2 (dog albumin (dog Alb) [4]): 76 ng/mL
maximal absorbance value [5]: 1.35 A450
Effective SDA Concentration at A450 0.15 [6]: 8 ng/mL
maximal absorbance value [7]: 1.36 A450
Effective SDA Concentration at A450 0.15 [8]: 2 ng/mL
maximal absorbance value [10]: 1.34 A450
Effective SDA Concentration at A450 0.7 [11]: 3.9 ng/mL
maximal absorbance value [12]: 0.64 A450
Effective SDA Concentration at A450 0.3 [13]: 33 ng/mL

B6: SVG13L (VHH)
VHH: QVQLQESGGGLVQPGGSLRLSCEASGFTFDDYGMSWVRQAPGKGLEWVSSLTPNGGSTYYADSVKGRFTISRDNAKNTLYLQMNSLKPEDTALYYCAKNSYYGAMDYWGKGTLVTVSS
notes: yeast-produced
binding result (horse serum albumin): no binding (tested: 100 nM)

Source: patent US20240376185A1 (SMIVET B V, published 2024)
